Target: the molecule itself
Test: cross-linking

B1: purified Egd2 (expressed in E. coli) (natural protein, S. cerevisiae, UniProt P38879 1-174, looked up)
chain: MSAIPENANVTVLNKNEKKARELIGKLGLKQIPGIIRVTFRKKDNQIYAIEKPEVFRSAGGNYVVFGEAKVDNFTQKLAAAQQQAQASGIMPSNEDVATKSPEDIQADMQAAAEGSVNAAAEEDDEEGEVDAGDLNKDDIELVVQQTNVSKNQAIKALKAHNGDLVNAIMSLSK
- stoichiometry N: 2

Source: paper PMC4508901 (The Journal of Cell Biology, 2015)
